Laboratory results taken from patent US20090124555A1, “USE OF HISTOGRANIN AND HISTOGRANIN-LIKE COMPOUNDS AS INHIBITORS OF P2X7 RECEPTOR FUNCTION AND AS ANTI-ARTHRITIC AGENTS” (priority 2005, published 2009).
“Also recorded” adds a separate entry of the source.

How the values were obtained:
P2X7 receptor [1] = biological target: T1, P2X7 receptor (Mus musculus, UniProt Q9Z1M0); test: ATP-induced extracellular release of IL-1.beta, IL-1.alpha and IL-6 in vivo (peritoneal lavage of LPS-primed mice); details: 0.1 mg and 0.3 mg i.p. 15 min before ATP, FIG. 6B
T1 construct: from tissue; host or cells: living mice; peritoneal cavity (lavage fluid analysed)
T1 sequence (Q9Z1M0 1-595): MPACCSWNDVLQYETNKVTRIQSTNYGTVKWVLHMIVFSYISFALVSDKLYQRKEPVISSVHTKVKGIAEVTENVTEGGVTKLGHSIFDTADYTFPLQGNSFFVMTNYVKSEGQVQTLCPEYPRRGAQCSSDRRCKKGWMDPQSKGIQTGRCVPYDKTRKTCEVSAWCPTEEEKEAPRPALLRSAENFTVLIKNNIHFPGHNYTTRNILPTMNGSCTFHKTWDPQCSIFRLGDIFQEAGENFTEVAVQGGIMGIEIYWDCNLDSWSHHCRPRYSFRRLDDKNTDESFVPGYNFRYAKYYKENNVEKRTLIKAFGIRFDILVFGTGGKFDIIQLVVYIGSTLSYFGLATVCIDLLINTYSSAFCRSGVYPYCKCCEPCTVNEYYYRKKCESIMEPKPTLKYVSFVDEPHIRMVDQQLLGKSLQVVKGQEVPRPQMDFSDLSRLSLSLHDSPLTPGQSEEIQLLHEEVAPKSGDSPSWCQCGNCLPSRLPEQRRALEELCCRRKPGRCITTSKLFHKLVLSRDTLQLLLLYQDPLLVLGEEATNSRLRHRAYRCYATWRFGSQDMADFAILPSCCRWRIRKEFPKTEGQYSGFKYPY
Procedure: Groups of mice were injected intraperitoneally (i.p.) with 50 μg of LPS. Two hours after this LPS injection, mice were injected i.p. with either PBS or ATP (5 mM, adjusted to pH 7), or with HN compounds (0.1 mg and 0.3 mg) 15 minutes before ATP injection. Mice were sacrificed 30 minutes (IL-1.beta and IL-1.alpha) or 120 minutes (IL-6) after the ATP or PBS injection and peritoneal cavities were lavaged each with 3 ml PBS. Samples of peritoneal lavages were centrifuged, cell-free supernatants were collected and tested for the presence of IL-1.beta, IL-1.alpha and IL-6 using ELISA (R&D Systems, Minneapolis, Minn., and Biosource, Camarillo, Calif., respectively).

[2] = system: DBA/1 mice with collagen-induced arthritis; test: Collagen-induced arthritis (CIA) in mice, clinical and histologic scoring; format: in vivo; details: 0.3 mg i.p. daily before LPS and onset
Procedure: For induction of arthritis, DBA/1 mice (The Jackson Laboratory, Bar Harbor, Me.) were immunized intradermally at the base of the tail with bovine type II collagen (100 μg; Chondrex, Richmond, Wash.) emulsified in Freund's complete adjuvant (Chondrex, Richmond, Wash.). On day 21, the animals were boosted with an intradermal injection of 100 μg type II collagen. To synchronize the onset of arthritis, mice were subsequently injected i.p. with LPS (50 μg) (Yoshino et al. (2000) J. Immunol. 163:3417-3422).
To test the subject of the present invention, mice were divided in various groups: mice injected with saline (negative control), mice injected with collagen and LPS (positive control), mice injected with collagen and treated i.p. daily with HN compound starting 2 days before i.p. injection of LPS and onset of arthritis, and mice injected with collagen and LPS, and treated i.p. daily with RN compound after the onset of arthritis as monitored by the presence of a positive clinical score index as described below.
The incidence of arthritis was monitored daily by macroscopic clinical scoring on a 0-3 scale where 0=normal: 1=slight swelling and erythema. […] Limb swelling was also measured with calipers (Wallace et al. (1999) J. Immunol. 162:5547-5555). […] Cartilage destruction was evaluated as the extent of loss of glycosaminoglycan matrix, death of chondrocytes, thinning and destruction. […]

P2X7 receptor [3] = biological target: T1, P2X7 receptor; test: P2X7 receptor-stimulated IL-1.beta release ex vivo, blood-based IL-1.beta assay in CIA mice; details: blood of i.p. treated CIA mice, FIG. 12C
Procedure: P2X7 receptor-stimulated IL-1 release ex vivo was performed with a blood-based IL-1.beta assay (Perregaux et al. (2000) J. Immunol. 165:4615-4623). Blood was collected from mice in each group in heparin-containing tubes. A total of 120 μl of blood was placed into an individual well of a 96-well plate and diluted with 120 μl RPMI 1640 medium containing 25 mM HEPES and 1% dialysed FBS. The diluted blood samples were incubated for 3 h in the presence and absence of LPS (1 μg/ml) at 37° C. in 5% CO2. ATP (5 mM, pH 7) was then added as a secretion stimulus and the mixtures were incubated at 37° C. for an additional 2 h. The 96-well plates were then centrifuged at 700×g for 10 min at 4° C., and the resulting plasma samples were collected and assayed for their IL-1.beta content by ELISA (R&D Systems, Minneapolis, Minn.).

P2X7 receptor [4] = biological target: T2, P2X7 receptor (Rattus norvegicus, UniProt Q64663); test: ATP-induced membrane permeabilization and pore formation (ethidium bromide uptake) in alveolar macrophages; format: cell-based; details: rat alveolar macrophages, FIG. 1A
T2 construct: Alveolar macrophages (AM) were recovered from normal rats by bronchoalveolar lavage; endogenous in cells; host or cells: primary alveolar macrophages from male Wistar rats (bronchoalveolar lavage)
T2 sequence (Q64663 1-595): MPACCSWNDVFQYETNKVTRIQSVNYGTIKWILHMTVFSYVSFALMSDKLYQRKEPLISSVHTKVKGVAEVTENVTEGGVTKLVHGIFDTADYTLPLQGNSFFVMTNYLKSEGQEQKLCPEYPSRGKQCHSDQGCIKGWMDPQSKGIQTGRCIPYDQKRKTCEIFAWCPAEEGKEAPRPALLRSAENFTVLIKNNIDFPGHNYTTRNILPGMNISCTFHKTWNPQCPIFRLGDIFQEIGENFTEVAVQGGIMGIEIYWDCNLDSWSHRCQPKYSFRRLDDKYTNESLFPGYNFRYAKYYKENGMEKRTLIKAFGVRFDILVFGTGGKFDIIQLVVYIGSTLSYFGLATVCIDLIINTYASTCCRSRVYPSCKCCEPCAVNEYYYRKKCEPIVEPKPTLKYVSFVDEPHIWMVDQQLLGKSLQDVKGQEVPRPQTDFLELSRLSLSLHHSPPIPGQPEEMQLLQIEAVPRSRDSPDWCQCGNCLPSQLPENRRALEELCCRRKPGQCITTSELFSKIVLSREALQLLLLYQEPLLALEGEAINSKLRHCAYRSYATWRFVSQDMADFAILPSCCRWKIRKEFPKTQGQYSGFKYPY
Procedure: Alveolar macrophages (AM) were recovered from normal rats by bronchoalveolar lavage (BAL) as described previously (Lemaire (1991) Am. J. Pathol. 138:487-495). The lungs were lavaged with 7 ml-aliquots of sterile phosphate buffered saline (pH 7.4; Wisent, St. Bruno, QC), and BAL cells were obtained by centrifugation at 200×g at 4° C. for 5 minutes. The cells were resuspended in RPMI 1640 medium (Wisent, St-Bruno, QC) supplemented with 0.5% dialysed fetal bovine serum (Wisent. St-Bruno, QC), 0.005% gentamycin (Schering Canada Inc. Pointe Claire. QC) and 0.8% HEPES (Sigma Chemical Co., St-Louis, MO) which will henceforth be referred to as complete culture medium (CM).
Freshly isolated AM (1×10^5) were incubated in 200 μl complete medium in 96 wells tissue culture plates for 24 h. Following centrifugation, medium was replaced with saline solution containing 125 mM NaCl, 5 mM KCL, 1 mM MgSO4, 1 mM Na2HPO4, 5.5 mM glucose, 5 mM NaHCO3, 1 mM CaCl2 and 20 mM Hepes, pH 7.6. Ethidium bromide was added to a final concentration of 20 μM and AM were stimulated with ATP (5 mM, Sigma), 3′-O-(4-benzoylbenzoyl ATP (BzATP) (0.5 mM, Molecular Probes) or uridine 5′-triphosphate (UTP) (Sigma), at 37° C. for 5 minutes. In some experiments, cells were pre-treated with oxidized ATP (oATP, 0.1 mM, Sigma) for 2 h or Brilliant Blue G (BBG, 5×10^−9M, Sigma) for 5 minutes, or HN compounds for 5 minutes before ATP stimulation. After ATP stimulation, the plate was centrifuged (200×g, 1 minute), culture supernatants were replaced with fresh buffer and the fluorescence was analyzed using a Zeiss Axiovert S1100 TV inverted microscope equipped with a rhodamine filter and a 32× objective. Images were captured and analysed with the Northern Eclipse image analysis software. Data are expressed as percentage of cells that become permeabilized to ethidium bromide.

Molecule	IL-1.beta in peritoneal lavage in response to ATP, various HN compounds (P2X7 receptor [1])	arthritis score index ([2]; FIG. 12A)	histological score index ([2]; both knees, FIG. 12B)	ATP-induced IL-1.beta release in peripheral blood (P2X7 receptor [3]; ATP without LPS ex vivo)	LPS+ATP-induced IL-1.beta release in peripheral blood (P2X7 receptor [3]; LPS 3 h then ATP 2 h ex vivo)	inhibition of ATP-induced pore formation (ethidium bromide uptake) (P2X7 receptor [4]; ATP 5 mM, 5 min, compound 10^−9M)	inhibition of BzATP-induced pore formation (P2X7 receptor [4]; BzATP 0.5 mM)
N=C(N)NCCC[C@H](Nc1ccccc1NC(=O)Cc1ccc(O)cc1)C(N)=O [C-11, N-5-guanidinopentanamide-(2S)-yl-2-N (p-hydroxyphenylacetyl)phenylenediamine]	inactive; also recorded: did not inhibit	did not reduce	did not reduce				
cyclic (-Gly-Ala-Tyr-D-Arg-) (GAYR; HELM PEPTIDE1{G.A.Y.[dR]}$PEPTIDE1,PEPTIDE1,1:R1-4:R2$$$V2.0; SMILES C[C@@H]1NC(=O)CNC(=O)[C@@H](CCCNC(=N)N)NC(=O)[C@H](Cc2ccc(O)cc2)NC1=O) [C-9]	reduced levels			inhibit	inhibit	inhibited significantly	inhibit
